The values below come from publication PMC11246235.

For this experiment, the target named is CST (FLAG-Ctc1, Stn1, HA-Ten1) purified from HEK293T/17 cells (human) (UniProt Q2NKJ3). Kind of experiment: co-IP.

Regarding “Polα/primase (endogenous), P09884 1-1462; Q14181 1-598; P49642 1-420; P49643 1-509”, the stoichiometry of Polα/primase to CST stood at 20%.
